Source: the supplement of paper PMC9170038

Test system: MS2 coat protein
Experiment: apparent KD of MS2 coat protein; designed switch direction (-1 OFF switch, 1 ON switch): -1; higher = weaker reporter binding
How it was run: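 Apparent KD, taken as the median over clusters for each design, was obtained by curve-fitting normalised cluster fluorescence. Designed RNA switches had been transcribed on Illumina chips by stalled E. coli RNA polymerase and titrated with SNAP-549-labelled MS2 coat protein, doubling from 0.7 or 1.5 nM to 3 µM.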

[1] = input ligand: microRNA oligo, concentration not stated
[2] = Eterna round: R95, input ligand: microRNA oligo, concentration not stated
[3] = Eterna round: R95, input ligand: FMN 200 uM
[4] = Eterna round: R95, input ligand: none

Sequence	apparent KD of MS2 coat protein (input ligand: FMN 200 uM)	apparent KD of MS2 coat protein (input ligand: none)	apparent KD of MS2 coat protein [2]	further results
CACUUACAUGAGGAUCACCCAUGUGAGGAUAUCGUGACCUGACGAGAAGUCAAUGUCACGAGAAGGUACAUGGG [Exclusion 1 (Mod 1 solution 97 by Eternabot)] (Eterna round: R97, puzzle: Exclusion 1)	59.3 nM	68.2 nM		
CUCCUACUUGUAGGAUAUCAGAGAUAACAUGAGGAUCACCCAUGUUGGGUCAUCAACUCAGUCGGUGAGAAGGACAGAAGUUGG [Eternabot solution 42] (Eterna round: R96, puzzle: Exclusion NG 2)	96.1 nM	63.2 nM		apparent KD of MS2 coat protein [1]: 68.6 nM
GGAGAGAGAGGAUAUGGAGGAAAGAACAUGAGGAUCACCCAUGUAGAGCCUCAAGAUCGACCAGAAGGCUCAGUCC [AK-MS2ROC-r4-exclusion5-10] (Eterna round: R97, puzzle: Exclusion 5)	150 nM	27.5 nM		
AGGUGCUUCUGGAGACAUGAGGAUCACCCAUGUCGAGUCAGCGAGGAUAUCGGUAAGACAUGUGAUGAGAAGGCGCAGACCGAU [Ex NG3 #52] (Eterna round: R96, puzzle: Exclusion NG 3)	48.6 nM	30.8 nM		apparent KD of MS2 coat protein [1]: 22.6 nM
GAUCAACAUGAGGAUCACCCAUGUGAGGAUAUGAUACUAUGUACUUCGGUACAUAGUAUCAGAAGGCACAUUGA [Ex1-3: 42] (puzzle: Exclusion 1)			90.9 nM	
AAUGUCUGAGGAUAUCGUUUUUUGUACAUGAGGAUCACCCAUGUUUUAUUUUGUAUAUUACGAGAAGGCAGUGGAA [JR_E5_Sub088] (puzzle: Exclusion 5)			22.7 nM	
CUCAUGUCAGGAUAUCUACAUUAAAUUGGUAACCAAGCAUGAGAGAAGGGACAUGAGGAUCACCCAUGUAAAAC [Cegeange] (Eterna round: R97, puzzle: Exclusion 4)	44 nM	27.5 nM		
AAUACAAGCGAGAUCCUAAACAUGAGGAUCACCCAUGUGCUCGUCUUAUAAAGUACUAUCACGAAAGUGAUAGUACA [Sensor 3, v1 - 67] (puzzle: Sensor v3, turn-off variant 1)			157 nM	apparent KD of MS2 coat protein [3]: 16.7 nM; apparent KD of MS2 coat protein [4]: 16.5 nM
CAUUAUUAUCGAGGAUAUCGUAUUGAGAUACUAUGAGAAGGCGGGAUAAACAUGAGGAUCACCCAUGUGAGCCGGAUGCUUGUG [Ex NG1 #36] (Eterna round: R96, puzzle: Exclusion NG 1)				apparent KD of MS2 coat protein [1]: 13.5 nM
UGAUCUAGCGGAGGAUAUACAUGAGGAUCACCCAUGUAUAGGCUAUCUGGUGACAGGUGGAACAUGUAGAAGGCCGCUAGAUCU [JL ENG2 3.80] (Eterna round: R96, puzzle: Exclusion NG 2)	78.1 nM	17.9 nM		apparent KD of MS2 coat protein [1]: 12.7 nM
UAUAUAUAGUAAGGAUAUGUAAUUAUUUAAUAAACAGAAGGUACUGACAUGAGGAUCACCCAUGUUUUAGUGUGGGCAUGUAGA [JMF's solution 41] (Eterna round: R96, puzzle: Exclusion NG 1)				apparent KD of MS2 coat protein [1]: 69.4 nM
AGUACUAACACGAAAGUGUUAGUACCAUAAGCUUGUGAAACAUGAGGAUCACCCAUGUCCUCAUAAGCUCGUCUUAU [salish99_TOv2_r3_041] (puzzle: Sensor v3, turn-off variant 2)			720 nM	apparent KD of MS2 coat protein [3]: 18.8 nM; apparent KD of MS2 coat protein [4]: 19.5 nM
ACCAAUCAUGUAGGAUAUGCGUGGCGAAGCUAUGCAGAAGGACAUGAGGAUCACCCAUGUGCUUCCGUCUGCGUACAGACGGUA [Mat - Exclusion NG 1 - Mod of JL - D17] (Eterna round: R96, puzzle: Exclusion NG 1)	49.2 nM	92.3 nM		apparent KD of MS2 coat protein [1]: 38.3 nM
CUGAGCUGAGGAUAUACAUGAGGAUCACCCAUGUUUUGUAGAUAGUGAAGAAGUAGAUGUAGAAGGCAGUUCGG [Mod of JL 24 - Jieux - Exclusion 3] (Eterna round: R97, puzzle: Exclusion 3)	206 nM	146 nM		
UUACUAUGUCGCUUAAUAGCUUUUUGCUCGUCUUAUAUUACAUGAGGAUCACCCAUGUAGAUCAUGUGGCGUGACCU [JL ViennaUCT Maridi mod 6] (puzzle: Sensor v3, turn-off variant 2)			36 nM	apparent KD of MS2 coat protein [3]: 247 nM; apparent KD of MS2 coat protein [4]: 237 nM
CACCGUUACCGAGGAUAUCGUACAUGAGGAUCACCCAUGUAAUAAAUGAGAAUUUCGGAUGUAUGCGAGAAGGCGGGAAUCGGC [Ostracism 35 - Jieux - Exclusion NG 2] (Eterna round: R96, puzzle: Exclusion NG 2)				apparent KD of MS2 coat protein [1]: 24.8 nM
UCGUGGUAACUCAGCAGUUUCCUGAGCGGAGGAACUUUGACAUGAGGAUCACCCAUGUUGCUUUUUGCUCAUCUUAA [JR_SV3TOV2_Sub042] (puzzle: Sensor v3, turn-off variant 2)			40.3 nM	apparent KD of MS2 coat protein [3]: 20.9 nM; apparent KD of MS2 coat protein [4]: 16.1 nM
UUUUUGUGAGGAUAUACGUAGUAGAACAAUAGUACUACUACGUAGAAGGCACAUGAGGAUCACCCAUGUUCCUC [Fiskers Ex 4 Super stable 44 mod 14] (puzzle: Exclusion 4)			45.2 nM	
UAUUAGCAAGUGAGGUCCCACAUGAGGAUCACCCAUGUGCUCGUCUUAUAAGGUACUGUGACGAAAGUCACGGUACC [Sensor 3, v1 - 95 v4] (Eterna round: R97, puzzle: Sensor, turn-off variant 1)	48.7 nM	40.8 nM		
UAUUAGCAAGCGAAAUCCCACAUGAGGAUCACCCAUGUAAAUAAAAGCUCCAGAAUUACUGGAGCAGCUCGUCUUAU [Winner reversed engineered 18] (Eterna round: R97, puzzle: Sensor, turn-off variant 1)	29.8 nM	24.5 nM		
AGCGAGGUAGGAUAUACAUGAGGAUCACCCAUGUGCUUGCAUGGCGUGGAAUGUCGAGGUAGAAGGGCCAUGCC [EX3 #72] (Eterna round: R97, puzzle: Exclusion 3)	33.2 nM	27.2 nM		
UUUUUACAUGAGGAUCACCCAUGUGAGGAUAUGGAGCGCGACCGCGCGGUCGCGUACACCAGAAGGCGCAGGAU [1st #76] (Eterna round: R97, puzzle: Exclusion 1)	89.7 nM	46.6 nM		
AAGAAACAUGAGGAUCACCCAUGUGAGGAUAUGGCCCGCCCGGCGUGAGCAAAAUAAAUCAGAAGGCACAAAGG [salish99_ex1_r4_009] (Eterna round: R97, puzzle: Exclusion 1)	41 nM	30.6 nM		
AGCGAGACAGGAUAUACUUGAGGAUCACCCAAGUCACAAAGGGUCUCACUCUUCACUAGUAGAAGGGUCGUGUA [Lereer] (Eterna round: R97, puzzle: Exclusion 3)	24.1 nM	18.7 nM		
UAUAAGCUAGGAUAUACUGGCACACAACUCAUAAAUCCACGACAUGAGGAUCACCCAUGUAGAAGGAGCAAAUA [EX2 A.27] (Eterna round: R97, puzzle: Exclusion 2)	18.8 nM	14.4 nM		
CCCUCACAUGAGGAUCACCCAUGUCAGGAUAUCUAGUCAGAUAGUGUAGCACUAAUGAAGAGAAGGGACGUAUA [Lezagees] (puzzle: Exclusion 1)			16.9 nM	
